This note sets out measurements from paper PMC9860306.

By Kd is commonly meant the free concentration of one partner at which half of the binding sites on the other are occupied at equilibrium, for simple one-to-one binding. Higher therefore signals weaker binding.

The target in test [1] is rituximab, galactosylated fucosylated (G2F) glycoform (human). As to the kind of experiment: SPR; KD2 (second site). For orientation: SPR reads the build-up and loss of mass on a sensor chip optically.
Test [2] concerns the target rituximab, galactosylated afucosylated (G2) glycoform (human). Put plainly: SPR; KD2 (second site).
Test [3] deals with rituximab, galactosylated fucosylated (G2F) glycoform (human). Put plainly: SPR; KD1.
In test [4] the target is rituximab, galactosylated afucosylated (G2) glycoform (human). Put plainly: SPR; KD1.
Sequence of rituximab, galactosylated afucosylated (G2) glycoform (human) (main, as listed by the source, chain 1 of 2): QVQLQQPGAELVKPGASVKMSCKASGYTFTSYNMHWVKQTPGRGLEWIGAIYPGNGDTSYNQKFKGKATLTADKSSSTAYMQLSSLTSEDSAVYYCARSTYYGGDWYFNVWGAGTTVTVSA
Sequence of rituximab, galactosylated afucosylated (G2) glycoform (human) (partner, as listed by the source, chain 2 of 2): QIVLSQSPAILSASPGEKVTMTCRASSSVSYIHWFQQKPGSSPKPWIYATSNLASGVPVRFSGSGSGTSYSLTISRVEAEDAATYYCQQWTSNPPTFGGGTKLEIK

Sequence of rituximab, galactosylated fucosylated (G2F) glycoform (human) (main, as listed by the source, chain 1 of 2): as the sequence (main, as listed by the source, chain 1 of 2) above
Sequence of rituximab, galactosylated fucosylated (G2F) glycoform (human) (partner, as listed by the source, chain 2 of 2): as the sequence (partner, as listed by the source, chain 2 of 2) above

Consider FcγRIIIA(V) tetramer, for which the Kd was found to be 2.29 nM in test [1], 2.3 nM in test [2], 55.2 nM in test [3] and 29.9 nM in test [4].
